Test results reported in article PMC3681702.
Like-named read-outs stand apart in the source and are kept apart here. One block for each substance: values may come before it.

What was measured:
[1] = target: p75 G247C mutant tagged with mEGFP (human) (UniProt P08138); assay: non-reducing SDS-PAGE of immunoprecipitated protein
[2] = target: p75 G247C/Δ250 mutant tagged with mEGFP (human); assay: as above
[3] = target: wild-type neurotrophin receptor p75 tagged with mEGFP (p75-EGFP) (human) (UniProt P08138); assay: number and brightness
[4] = target: wild-type neurotrophin receptor p75 tagged with mEGFP (p75-EGFP) (human) (UniProt P08138); assay: photon-counting histogram
[5] = target: wild-type neurotrophin receptor p75 tagged with mEGFP (p75-EGFP) (human) (UniProt P08138); assay: non-reducing SDS-PAGE of immunoprecipitated protein
[6] = target: wild-type neurotrophin receptor p75 tagged with mEGFP (p75-EGFP) (human) (UniProt P08138); assay: as above; remark: listed apart in the source
[7] = target: p75 C257A/G266I mutant tagged with mEGFP (human) (UniProt P08138); assay: as above
[8] = target: p75 Δ193/C257A/G266I mutant tagged with mEGFP (human); assay: number and brightness

Substance: p75 G247C/Δ250 mutant tagged with mEGFP (receptor)
- percent recovered as dimer [2]: 56%

Substance: wild-type neurotrophin receptor p75 tagged with mEGFP (p75-EGFP) (from UniProt P08138 29-427)
- average brightness normalised to EGFP, center of the TGN [3]: 6.9 x EGFP
- average brightness normalised to EGFP, periphery of the TGN [3]: 10.4 x EGFP
- stoichiometry N (molecules per oligomer) [3]: 8.8
- median brightness normalised to EGFP [4]: 1.71 x EGFP
- stoichiometry N [4]: 3
- stoichiometry N (EGFP molecules per complex) [4]: 1 to 5
- percent recovered as dimer [5]: 5.8%
- percent recovered as dimer [6]: 6.9%

Substance: p75 C257A/G266I mutant tagged with mEGFP (from UniProt P08138 29-427) (receptor)
- percent recovered as dimer [7]: 0.8%

The remaining lines, values ahead:

- percent recovered as dimer [1]: 29%
Substance: p75 G247C mutant tagged with mEGFP (from UniProt P08138 29-427) (receptor)

- stoichiometry N (molecules per oligomer) [8]: 2.9
Substance: p75 Δ193/C257A/G266I mutant tagged with mEGFP (receptor)
